Measurements from US20130035289A1, “PHARMACEUTICAL COMPOSITION FOR TREATMENT OF THROMBOSIS-RELATED DISEASES COMPRISING A FRAGMENT OF PROLACTIN (PRL)-GROWTH HORMONE (GH)-PLACENTAL LACTOGEN (PL)-FAMILY PROTEIN” (UNIVERSITE DE LIEGE, priority 2010, published 2013).

Experiments:
[1] = molecular target: T1, PAI-1 (Mus musculus, UniProt P22777); assay: Murine thromboembolism model (tPA/thromboplastin); type: in vivo; conditions: recombinant 16K PRL 1 mg/kg i.v. 5 min before t-PA/thromboplastin; survival at 15 min; control group 73%; p=0.003
T1 construct: from tissue; host or cells: BalbC Njrj mice, in vivo (blood)
T1 sequence (P22777 23-402): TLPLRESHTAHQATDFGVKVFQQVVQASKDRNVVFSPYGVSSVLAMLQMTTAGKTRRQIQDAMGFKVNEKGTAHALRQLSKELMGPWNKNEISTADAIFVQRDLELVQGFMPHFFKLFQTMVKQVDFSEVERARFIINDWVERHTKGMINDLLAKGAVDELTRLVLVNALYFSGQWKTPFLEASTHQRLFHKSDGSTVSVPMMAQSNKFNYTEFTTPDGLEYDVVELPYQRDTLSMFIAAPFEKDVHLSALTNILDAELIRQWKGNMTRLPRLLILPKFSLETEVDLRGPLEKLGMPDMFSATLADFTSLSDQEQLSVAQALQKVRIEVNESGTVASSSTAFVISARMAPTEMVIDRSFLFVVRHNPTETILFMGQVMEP
Method: BalbC Njrj Mice were used and anesthetised with ketamine/xylazine throughout the whole experiment. Recombinant 16K PRL and adenovirus vectors 16K-Ad and Null-Ad were produced as described above. The animal experiment protocol used was approved by the Institutional Ethics Committee of the University of Liege.
Recombinant 16K PRL (1 mg/kg) or POPRL 7-12 (10 mg/kg) were administrated via the vein to BalbC Njrj mice of approximately 15-18 g. Five minutes after the injection, a suboptimal concentration of t-PA (0.1 mg/kg) was injected immediately followed by i.v. injection of thromboplastin (3.3 μg/kg) to evoke thromboembolism. Mice were evaluated after 15 min for survival. For experiment with adenovirus vectors, mice were injected into the tail vein with 10^9 pfu of 16K hPRL adenovirus (16K-Ad) and their corresponding control (Null-Ad) 5 days before the injection a suboptimal concentration of t-PA (0.1 mg/kg) injected immediately followed by i.v. injection of thromboplastin (3.3 μg/kg).
The fisher test was used to determine the significance of the differences in the mortality assays.

[2] = molecular target: T2, uPA (Homo sapiens, UniProt P00749+P05121); assay: In situ proximity ligation assay (PLA) on HUVECs; type: cell-based
T2 construct: endogenous in cells; host or cells: HUVEC
Method: HUVECs were grown on gelatin-coated glass coverslips. After incubation for 2 h with 14K GH (50 nM) or 16K PRL (50 nM), the cells were washed with PBS at room temperature and fixed with 4% paraformaldehyde for 15 min, blocked, permeabilized and incubated overnight with mouse anti uPA (American Diagnostica Inc. Greenwich, Conn.) diluted 1/100 and rabbit anti prolactin (Dako) diluted 1/100, or rabbit anti human GH (home made) diluted 1/100. PLA was performed according to the manufacturer's instructions using the Duolink Detection Kit 563 (Olink Bioscience) with anti-mouse MINUS and anti-rabbit PLUS PLA probes. DAPI nucleus stain was added to the mounting media and the slides were analyzed by fluorescence microscopy.

[3] = system: NF-κB; assay: NF-κB activity in ABAE cells; type: cell-based, bovine; conditions: PAI-1 knockdown with si-RNA, 16K PRL 50 nM 1 h
[4] = system: NF-κB; assay: NF-κB p65 DNA-binding activity in HUVECs; type: cell-based, human; conditions: 16K PRL 50 nM 1 h
Method: HUVECs were incubated for 2 h with 16K PRL and immunostained for uPA (red) or 16K PRL (green) and nuclei (DAPI, blue). Bottom panels: co-localization of PAI-1 and 16K PRL. To visualize added PAI-1 and not endogenous PAI-1, cells were incubated with His-tag PAI-1 and 16K PRL and stained for PAI-1 (red), 16K PRL (green), and nuclei (DAPI, blue). (B) Schematic outline of the proximity ligation assay (PLA) strategy showing primary antibody from different species for uPA and 16K PRL. Juxtaposition of secondary, oligonucleotide ligated antibodies allows a rolling circle amplification detected by a cy3-probe. (C) Detection of uPA/16K PRL complexes (red spots) on HUVECs by PLA. […]
HUVECs were pre-treated with a blocking uPAR Ab 3 μg/ml (R&D system) or control IgG (SantaCruz) for 1 h and then incubated for 1 h with 16K PRL (50 nM). The p65 DNA-binding activity of NF-κB was quantified by ELISA (EZ Transcription Factor kit NF-κB p65 (Pierce)) according to the manufacturer's instructions on total protein extracts. Protein concentrations were determined by the […] using the BCA protein assay reagent (Pierce). NF-κB binding to the target oligonucleotide was detected by incubation with primary antibody specific for the activated form of p65, visualized by anti-IgG horseradish peroxidase conjugate and developing solution. Chemiluminescence was quantified with a luminometer.

B1: 16K hPRL: 16K N-terminal human prolactin fragment, recombinant, produced and purified from E. coli (protein)
chain: LPICPGGAARCQVTLRDLFDRAVVLSHYIHNLSSEMFSEFDKRYTHGRGFITKAINSCHTSSLATPEDKEQAQQMNQKDFLSLIVSILRSWNEPLYHLVTEVRGMQEAPEAILSKAVEIEEQTKRLLEGMELIVSQVHP
mortality [1]: 32%
distance between uPA and 16K PRL [2]: less than 40 nm
16K PRL action on ECs (NF-κB activity) [3]: reduced
16K PRL-induced NF-κB signaling ([4]; blocking uPAR antibody pre-treatment 1 h): disrupts
16K PRL response (NF-κB activity), requirement of uPA ([4]; pre-treatment with ATF of uPA): required
